Laboratory results: patent publication US20200109196A1 (MOGAM INSTITUTE FOR BIOMEDICAL RESEARCH, published 2020)
Changes are numbered by the printed parent chain. One block for each binder: values may come before it.

Key:
[1] = molecular target: T1, recombinant human CEACAM-1/CD66a protein (R&D systems; Cat. No. 2244-CM) (human, UniProt P13688 35-428); test: Octet QKe biolayer interferometry, anti-His (HIS1K) biosensors, antibody 6.25-400 nM
T1 construct: Bought protein; captured on anti-His (His1K) biosensors in the Octet assay, so it carries a His tag; also called HCCM1; recombinant CEACAM-1/CD66a protein
T1 sequence (looked up): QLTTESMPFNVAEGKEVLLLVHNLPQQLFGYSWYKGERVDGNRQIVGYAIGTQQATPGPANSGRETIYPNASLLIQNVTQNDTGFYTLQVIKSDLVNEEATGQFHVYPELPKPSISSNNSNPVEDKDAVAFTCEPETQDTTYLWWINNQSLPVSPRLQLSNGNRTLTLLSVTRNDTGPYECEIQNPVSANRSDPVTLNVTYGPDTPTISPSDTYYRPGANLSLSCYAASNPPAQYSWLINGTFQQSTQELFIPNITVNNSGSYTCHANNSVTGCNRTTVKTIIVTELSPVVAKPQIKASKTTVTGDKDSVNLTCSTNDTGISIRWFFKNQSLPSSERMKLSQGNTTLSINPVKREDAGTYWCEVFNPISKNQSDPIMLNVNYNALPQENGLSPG
Procedure: The last well in each row was with a sample at the antibody concentration of 0 nM. Recombinant human CEACAM1 protein (R&D Systems; Cat. No. 2244-CM) was diluted to obtain a concentration of […], and dispensed into each well of another column at 200 μl/well.
As for the washing buffer, neutralization buffer and baseline buffer, Reagent/Kinetics buffer (10×) (Fortebio; Cat. No. 18-1092) were 1:10 diluted and dispensed into each well of a column in a row at 200 μl/well, and the regeneration buffer was dispensed into each well at 200 μl/well. Greiner 96-well plate was separately prepared, Reagent/Kinetics buffer (1×) was dispensed into each well of the number of biosensors to be used in a row at 200 μl/well, and Biosensors/Anti-His (His1K) (Fortebio; Cat. No. 18-5120) cassette was installed.

HVISTA = molecular target: T2, HVISTA; test: ELISA on coated antigen (0.25 µg/ml), HRP anti-human IgG Fc, OD450
T2 construct: unrelated control antigen; also called human B7-H5/Gi24/VISTA protein (Sino Biological; Cat. No. 13482-H08H); not shown: the vendor's polyhistidine tag
T2 sequence (chain, as listed by the source limits assumed): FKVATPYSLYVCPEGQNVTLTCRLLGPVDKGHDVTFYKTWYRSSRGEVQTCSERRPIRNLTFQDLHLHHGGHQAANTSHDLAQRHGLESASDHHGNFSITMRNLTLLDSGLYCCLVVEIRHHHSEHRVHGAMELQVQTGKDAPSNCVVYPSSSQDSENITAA
Text: (§1) All of the recombinant human CEACAM-1/CD66a protein (R&D systems; Cat No. 2244-CM, HCCM1), recombinant human CEACAM-5/CD66e protein (R&D systems; Cat. No. 4128-CM, HCCM5), recombinant human CEACAM-6/CD66c protein (R&D systems; Cat. No. 3934-CM, HCCM6), recombinant human CEACAM-3/CD66d protein (Sino Biological; Cat. No. 11933-H08H, HCCM3), human B7-H5/Gi24/VISTA protein (Sino Biological; Cat. No. 13482-H08H, HVISTA), recombinant human CEACAM-1/CD66a protein Bulk (R&D systems; Cat. No. 2244-CM, HCCM1 (bulk)), recombinant human CEACAM1-N domain-Kappa protein (Mogam, in-house production, HCCM1-N domain-kappa), and BSA protein (2.5 μg each) were dissolved in 10 ml of PBS, respectively, and dispensed into a 96-well plate at 100 μl/well, which was incubated at 4° C. overnight. Thereafter, each well was treated with 300 μl of 1% (v/v) bovine serum albumin, and incubated at 37° C. for 1 hour.
(§2) The diluted antibodies were dispensed into each well coated with each protein at 100 μl/well, and incubated at 37° C. for 1 hour. Then, each well was washed 3 times with a washing buffer prepared by diluting 10 μl of Tween 20 (Sigma-Aldrich; Cat. No. P9146) in 990 μl of PBS. Thereafter, 2 μl of HRP-conjugated human anti-IgG-Fc antibody (anti-human IgG Fc, Sigma Cat. No. A0170) was diluted in 10 ml of PBS, added to the wells at 100 μl/well, and incubated for 1 hour.
(§3) After completion of the reaction, the wells were washed three times with the washing buffer, and 100 μl of TMB solution was added to each well to induce color development. Then, 100 μl of 2 M H₂SO₄ was added to each well to stop the reaction, and the absorbance was measured at a wavelength of 450 nm.

BSA = molecular target: T3, BSA (bovine, UniProt P02769); test: as above
T3 construct: blank antigen; also called BSA protein; bovine serum albumin
T3 sequence (P02769 25-607 limits assumed): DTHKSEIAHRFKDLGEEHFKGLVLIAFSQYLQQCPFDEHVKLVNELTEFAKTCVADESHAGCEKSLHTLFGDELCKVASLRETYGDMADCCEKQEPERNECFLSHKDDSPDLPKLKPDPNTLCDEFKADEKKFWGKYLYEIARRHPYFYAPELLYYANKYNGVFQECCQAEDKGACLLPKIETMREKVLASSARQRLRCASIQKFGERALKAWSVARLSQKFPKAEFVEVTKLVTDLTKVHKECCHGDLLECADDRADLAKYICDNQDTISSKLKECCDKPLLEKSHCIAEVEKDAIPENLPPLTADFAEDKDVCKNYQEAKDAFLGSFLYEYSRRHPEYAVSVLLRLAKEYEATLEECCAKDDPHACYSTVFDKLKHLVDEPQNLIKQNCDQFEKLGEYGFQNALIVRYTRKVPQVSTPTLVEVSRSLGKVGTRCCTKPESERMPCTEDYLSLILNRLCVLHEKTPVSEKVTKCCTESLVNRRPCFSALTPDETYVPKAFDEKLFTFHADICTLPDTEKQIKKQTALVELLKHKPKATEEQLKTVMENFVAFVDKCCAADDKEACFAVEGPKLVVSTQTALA
Text: as §1, §2, §3

mCCM1 = molecular target: T4, mCCM1; test: ELISA on coated antigen (0.25 µg/ml), HRP anti-human IgG Fab, OD450
T4 construct: also called mouse CCM1; mouse CEACAM1/CD66a protein (Sino Biological); not shown: the vendor's polyhistidine tag
T4 chain: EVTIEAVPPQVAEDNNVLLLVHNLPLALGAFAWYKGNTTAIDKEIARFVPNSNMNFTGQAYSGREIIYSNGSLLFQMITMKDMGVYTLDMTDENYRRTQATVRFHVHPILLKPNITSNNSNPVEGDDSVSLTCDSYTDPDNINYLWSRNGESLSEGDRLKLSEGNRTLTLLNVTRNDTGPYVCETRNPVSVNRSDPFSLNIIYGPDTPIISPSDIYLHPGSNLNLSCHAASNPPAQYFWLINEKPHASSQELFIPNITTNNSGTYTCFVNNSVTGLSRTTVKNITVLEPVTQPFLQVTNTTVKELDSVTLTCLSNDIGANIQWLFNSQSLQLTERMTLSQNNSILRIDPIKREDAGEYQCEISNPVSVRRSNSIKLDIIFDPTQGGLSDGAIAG
Text: All of the recombinant human CEACAM-1/CD66a protein (R&D systems; Cat. No. 2244-CM, HCCM1), recombinant human CEACAM-5/CD66e protein (R&D systems; Cat. No. 4128-CM, HCCM5), recombinant human CEACAM-6/CD66c protein (R&D systems; Cat. No. 3934-CM, HCCM6), recombinant human CEACAM-3/CD66d protein (Sino Biological; Cat. No. 11933-H08H, HCCM3), recombinant mouse PD-1 Fc chimeric protein (R&D systems; Cat. No. 1021-PD, mPD-1-Fc), recombinant CEACAM1-Fc (IgG4) protein (Mogam, in-house production, HCCM1-Fc), recombinant human CEACAM-1/CD66a protein Bulk (R&D systems; Cat. No. 2244-CM, HCCM1 (bulk)) and mouse CEACAM1/CD66a protein (Sino Biological; Cat. No. 50571-M08H, mouse CCM1) (2.5 μg each) were dissolved in 10 ml of PBS, respectively and dispensed into a 96-well plate (Nunc; Cat. No. 467679) at 100 μl/well, which was incubated overnight at 4° C. Thereafter, each well was treated with 300 μl of 1% (v/v) bovine serum albumin, which was incubated at 37° C. for 1 hour.
The diluted antibodies were dispensed into each well coated with each protein at 100 μl/well, which was incubated at 37° C. for 1 hour. Then, each well was washed 3 times with a washing buffer prepared by diluting 10 μl of Tween 20 (Sigma-Aldrich; Cat. No. P9146) in 990 μl of PBS. Thereafter, 2 μl of HRP-conjugated human anti-IgG-Fab antibody (anti-human IgG Fab; Sigma; Cat. No. A0293) was diluted in 10 ml of PBS, added to the wells at 100 μl/well, and incubated for 1 hour.
as §3

- Kd [1]: 25.7 nM
- koff [1]: 0.000321 s⁻¹
- kon [1]: 19000 M⁻¹ s⁻¹
B1: 4R9_H4-n20HC+4R26LC (antibody, human IgG4 S228P, lambda, V domains shown)
VH: EVQLLESGGGLVQPGGSLRLSCAASGFNFSNYAMSWVRQAPGKGLEWVSVISHGGGSIYYADSVKGRLTISRDNSKNTLYLQMNSLRAEDTAVYYCARDPTKGYAPTFDYWGQGTLVTVSS
VL: QSVLTQPPSASGTPGQRVTISCSGSSSNIGNNYVSWYQQLPGTAPKLLIYADSKRLSGVPDRFSGSKSGTSASLAISGLRSEDEADYYCGAWDGRLNGYVFGGGTKLTVLG

B2: C16 (antibody, human IgG4 S228P, lambda, V domains shown)
VH: EVQLLESGGGLVQPGGSLRLSCAASGFTFSNYSMSWVRQAPGKGLEWVSAISSDGGSKYYADSVKGRFTISRDNSKNTLYLQMNSLRAEDTAVYYCARDPRKHVDRYFDYWGQGTLVTVSS
VL: B1 VL with N31S, Y33T, S53N, K54N, L56P, A91T, G94Y, R95S, N97S, F101L
- binding result (HVISTA): no binding (tested: 3 µg/ml (single concentration))
- binding result (BSA): no binding (tested: 3 µg/ml (single concentration))
- binding result (mCCM1): no binding (tested: 3 µg/ml (single concentration))
